Measurements as given in US20180177842A1 (CANIMGUIDE THERAPEUTICS, published 2018).
Ends that are not written are not given here.

T1: His-tagged P3028 (PGE73) (human, also: His tag, length and end not given here)
T1 construct: the tag is put first here only for want of a statement; also called His-tag-P3028; not shown: His tag
T1 peptide: VFDEFKPLVEEPQNLIK

B1: … (Asp-N-generated albumin fragment, SEQ ID NO: 223) (peptide)
peptide: YSVVLLLRLAKTYETTLEKCCAAADPHECYAKVF
B2: … (Asp-N-generated albumin fragment, SEQ ID NO: 225) (peptide)
peptide: ICTLSEKERQIKKQTALVELVKHKPKATKEQLKAVM
B3: … (Asp-N-generated albumin fragment, SEQ ID NO: 230) (peptide)
peptide: YLSVVLNQLCVLHEKTPVSDRVTKCCCTESLVNRRPFSALEV
B4: … (Asp-N-generated albumin fragment, SEQ ID NO: 219) (peptide)
peptide: DRVTKCCTESLVNRRPCFSALEV
B5: … LEKCCAAA (Asp-N-generated albumin fragment, SEQ ID NO: 227) (peptide)
peptide: VFLGMFLYEYARRHPDYSVVLLLRLAKTYETTLEKCCAAA
B6: … (Asp-N-generated albumin fragment, SEQ ID NO: 222) (peptide)
peptide: DKLCTVATLRETYGEM
B7: … (Asp-N-generated albumin fragment, SEQ ID NO: 229) (peptide)
peptide: RVTKCCTESLVNRRPCFSALEVDETYVPKEFNAETFTFHA
B8: … (Asp-N-generated albumin fragment, SEQ ID NO: 217) (peptide)
peptide: DHVKLVNEVTEFAKTCVA
B9: … (Asp-N-generated albumin fragment, SEQ ID NO: 218) (peptide)
peptide: DDKETCFAEEGKKLVAASQAALGL
B10: … (Asp-N-generated albumin fragment, SEQ ID NO: 226) (peptide)
peptide: LAKYICENQDSISSKLKECCEKPLLEKHCIAEVEN
B11: … (Asp-N-generated albumin fragment, SEQ ID NO: 228) (peptide)
peptide: LGEENFKALVLIAFAQYLQQCPFEDHVKLVNEVTEFAKTCVA
B12: … (Asp-N-generated albumin fragment, SEQ ID NO: 221) (peptide)
peptide: DSISSKLKECCEKPLLEKSHCIAEVEN
B13: … (Asp-N-generated albumin fragment, SEQ ID NO: 220) (peptide)
peptide: DETYVPKEFNAETFTHA
B14: … (Asp-N-generated albumin fragment, SEQ ID NO: 224) (peptide)
peptide: KLCTVATLRETYGEMADCCAKQEPERNECFLQHK
B15: … (trypsin-generated albumin fragment, SEQ ID NO: 196) (peptide)
peptide: VFDEFKPLVEEPQNLIK
B16: … (trypsin-generated albumin fragment, SEQ ID NO: 197) (peptide)
peptide: VPQVSTPTLVEVSR
B17: … (trypsin-generated albumin fragment, SEQ ID NO: 198) (peptide)
peptide: RPCFSALEVDETYVPK
B18: … (trypsin-generated albumin fragment, SEQ ID NO: 215) (peptide)
peptide: LDELRDEGK
B19: DDNPNLPR (trypsin-generated albumin fragment, SEQ ID NO: 216) (peptide)
peptide: DDNPNLPR
B20: … (trypsin-generated albumin fragment, SEQ ID NO: 201) (peptide)
peptide: LKECCEKPLLEK
B21: … (trypsin-generated albumin fragment, SEQ ID NO: 212) (peptide)
peptide: VHTECCHGDLLECADDR
B22: LCTVATLR (trypsin-generated albumin fragment, SEQ ID NO: 202) (peptide)
peptide: LCTVATLR
B23: … (trypsin-generated albumin fragment, SEQ ID NO: 211) (peptide)
peptide: QEPERNECFLQHK
modifications: not fully specified
B24: FQNALLVR (trypsin-generated albumin fragment, SEQ ID NO: 199) (peptide)
peptide: FQNALLVR
B25: … (trypsin-generated albumin fragment, SEQ ID NO: 200) (peptide)
peptide: SLHTLFGDK
B26: … (trypsin-generated albumin fragment, SEQ ID NO: 214) (peptide)
peptide: YICENQDSISSK
B27: … (trypsin-generated albumin fragment, SEQ ID NO: 195) (peptide)
peptide: KVPQVSTPTLVEVSR
B28: … (trypsin-generated albumin fragment, SEQ ID NO: 213) (peptide)
peptide: FKDLGEENFK
B29: SEQ ID NO 9 (peptide)
peptide: KKLDTFMVKLSLFTER
notes: on PEPSCAN card; also called P28R with M in position 7
B30: SEQ ID NO 10 (peptide)
peptide: KKLDTFSVKLSLFTER
notes: on PEPSCAN card; also called P28R with S in position 7
B31: SEQ ID NO 24 (peptide)
peptide: KKLDTFFVKLSLHTER
notes: on PEPSCAN card; also called P28R with H in position 13
B32: SEQ ID NO 22 (peptide)
peptide: KKLDTFFVKLSLMTER
notes: on PEPSCAN card; also called P28R with M in position 13
B33: SEQ ID NO 25 (peptide)
peptide: KKLDTFFVKLSLNTER
notes: on PEPSCAN card; also called P28R with N in position 13
B34: SEQ ID NO 16 (peptide)
peptide: KKLDTFFVKLMLFTER
notes: on PEPSCAN card; also called P28R with M in position 11
B35: SEQ ID NO 23 (peptide)
peptide: KKLDTFFVKLSLQTER
notes: on PEPSCAN card; also called P28R with Q in position 13
B36: SEQ ID NO 15 (peptide)
peptide: KKLDTFFVKLQLFTER
notes: on PEPSCAN card; also called P28R with Q in position 11

biological target: Artificial Cell Surface (ACS); experiment: ACS column adsorption of Asp-N-digested dHSA, MALDI-TOF MS

Row | Percent Absorbed [%] | Binder
1 | 100 | B1
2 | 100 | B2
3 | 37 | B3
4 | 87 | B4
5 | 100 | B5
6 | 65 | B6
7 | 100 | B7
8 | 100 | B8
9 | 100 | B9
10 | 100 | B10
11 | 100 | B11
12 | 65 | B12
13 | 86 | B13
14 | 100 | B14

biological target: Artificial Cell Surface (ACS); experiment: ACS column adsorption of trypsin-digested dHSA, MALDI-TOF MS

Row | Percent Absorbed [%] | Binder
15 | 60 | B15
16 | 59 | B16
17 | 42 | B17
18 | 2 | B18
19 | 1 | B19
20 | 36 | B20
21 | 13 | B21
22 | 35 | B22
23 | 18 | B23
24 | 41 | B24
25 | 36 | B25
26 | 3 | B26
27 | 64 | B27
28 | 8 | B28

Biological target: T1, His-tagged P3028 (PGE73)
Experiment: PEPSCAN ELISA: peptide on chip, His-tagged P3028 in solution, anti-His mAb and rampo conjugate
Experimental: After washing, the peroxidase substrate 2,2′-azine-di-3-ethylbenzthiazoline sulfonate (ABTS) and 2 μL of 3% H2O2 were added. The binding capacity of the mAb was measured as a color development at 405 nm (optical density, OD405). The color development was quantified with a charge-coupled device (CCD)—camera and an image processing system.
The OD405-values obtained by a CCD-camera was considered as raw data values (“rampo values,” “rampo units,” or “rampo scores”). […] First the CCD-camera made a picture of the card before peroxidase coloring and then again a picture after the peroxidase coloring. […] These values were copied into an excel file and labeled as a raw data file. […] Sometimes a well can contain an air-bubble resulting in a false-positive value. If manual inspection of the cards detect an air-bubble the value are set to 0 for well.

Row | rampo value [rampo units] | Binder
29 | > 700 | B29
30 | > 700 | B30
31 | > 800 | B31
32 | > 800 | B32
33 | > 800 | B33
34 | > 700 | B34
35 | > 800 | B35
36 | > 700 | B36
